From the supplement of paper PMC10126150
± gives the standard deviation of the averaged measurements.

Tested on: ATP
Experiment: switch fluorescence ratio, 500 uM ATP over buffer (Cy3 cluster intensity, sum of 5 cycles each) (fold (ratio)); higher = stronger signal-on switching upon ATP binding; sequences stand for … in TCGTCGGCAGCGTCAGATGTGTATAAGAGACAGTTTTTTTTTTTTTTTTTTTTTTTTT…TC
Settings: aptamer strand: ATP DNA aptamer (quencher-CACCTGGGGGAGTATTGCGGAGGAAGG + anchor), 100 nM annealed; ATP concentration: 500 uM
Method in brief: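 Exposure to 500 uM ATP lasted 15 min at 22 °C before imaging, and a selection-buffer image was taken beforehand, for Cy3-labelled switching-strand clusters on a modified Illumina MiSeq flow-cell annealed to 100 nM quencher-labelled ATP aptamer. Five buffer/ATP cycles were run with NaOH stripping and re-annealing between them. The fluorescence ratio per cluster is summed target-cycle over summed buffer-cycle Cy3 intensity, averaged per switch-domain sequence. Clusters outside 100-1000 RFU were excluded.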

| Sequence | switch fluorescence ratio |
| --- | --- |
| TTTGTTTGTG | 1 ± 0.014 |
| GCGGCACAAT | 1.05 ± 0.013 |
| CATAGGCCGT | 1.03 ± 0.047 |
| TTAGGGGACA | 1.04 ± 0.025 |
| ACATGAACCT | 2.14 ± 0.077 |
| TTTTTAAGTC | 0.985 ± 0.026 |
| TTTTTACATC | 1 ± 0.021 |
| CCATTTTTGC | 1 ± 0.022 |
| TATACTGCAC | 1.54 ± 0.032 |
| AGAAGATGGT | 0.9827 ± 0.0029 |
| GGAGATTGGT | 0.983 ± 0.024 |
| TGAGGAATTC | 1 ± 0.017 |
| GGTGCTGGCA | 0.956 ± 0.051 |
| TTGTGGAACG | 0.989 ± 0.019 |
| TACAAGGTCA | 1.01 ± 0.0045 |
| TTTCGTGTTT | 0.998 ± 0.028 |
| ACGCAGTTCC | 1.151 ± 0.0075 |
| AGTAGTTATT | 0.965 ± 0.011 |
| TTGGGATTAA | 1.05 ± 0.053 |
| TCATGACAGC | 1 ± 0.034 |
| TGGGCCTAAG | 0.968 ± 0.061 |
| CGGGCCACGT | 0.997 ± 0.034 |
| GGGGCAAAGC | 0.96 ± 0.085 |
| ACAGACTTTG | 1.01 ± 0.062 |
| GCGATAAACC | 1.1929 ± 0.00026 |
| TGAGTTTGGT | 0.97 ± 0.018 |

| Sequence | switch fluorescence ratio |
| --- | --- |
| TTGAGTTAC | 1.03 ± 0.06 |
| GGTAATGGTA | 0.9702 ± 0.0045 |
| CGGGCTATGG | 1 ± 0.023 |
| CTCTTAAGGG | 1.01 ± 0.018 |
| ATCACGGTGC | 1.1 ± 0.061 |
| TTAGGCGGGT | 1.01 ± 0.064 |
| TTTGCCGGAC | 1.04 ± 0.062 |
| ACAGGTTAGA | 1.05 ± 0.014 |
| ATAATTATA | 1.01 ± 0.018 |
| ATGTCACTGT | 1.01 ± 0.043 |
| TTTCTGTAAT | 1.05 ± 0.03 |
| CGTAAGGCAG | 1 ± 0.038 |
| TTGGAGACGG | 1.023 ± 0.0012 |
| ATATGGTGAT | 1 ± 0.057 |
| CTTAGGGGTG | 0.973 ± 0.011 |
| AGTGCCCGTA | 1.02 ± 0.063 |
| CCTATTAGG | 1 ± 0.011 |
| AAGTCCAATG | 1.01 ± 0.023 |
| ACCGTCCCCA | 1.26 ± 0.11 |
| TTTCCTGGGC | 1.37 ± 0.61 |
| GGGCGCCAAA | 1.0045 ± 0.00091 |
| CGCATTGTGA | 1.02 ± 0.063 |
| TACAACTTTC | 1.08 ± 0.051 |
| GTTGTGTTGT | 0.979 ± 0.028 |
| TCAACTGGAT | 0.9502 ± 0.0053 |
| ACATTGGGAT | 0.998 ± 0.022 |

| Sequence | switch fluorescence ratio |
| --- | --- |
| TAGGGGTCTG | 1.032 ± 0.0059 |
| CGTCTAAAC | 1.13 ± 0.021 |
| TATAATACAA | 1.024 ± 0.0097 |
| AGGACTGTCT | 0.986 ± 0.018 |
| GGGTCTTTTC | 1.11 ± 0.11 |
| CGGTGTTGCC | 0.971 ± 0.011 |
| GGACTTGCGA | 1.043 ± 0.0042 |
| TCATCGCATG | 1.3 ± 0.016 |
| AGGGGCAGGA | 0.941 ± 0.06 |
| TGCCGGATTT | 1.02 ± 0.018 |
| AGGACAGGTG | 1.33 ± 0.055 |
| GTGGTGGGTT | 0.975 ± 0.018 |
| CGTTCCTCGG | 1.77 ± 0.057 |
| GCAATCATTC | 1.18 ± 0.087 |
| GGCTCGTAGG | 1 ± 0.024 |
| TGCTGCAGTG | 0.966 ± 0.024 |
| TAGAGACTGA | 1.023 ± 0.0022 |
| AATGGGAAGG | 0.971 ± 0.028 |
| ATATGAGCAG | 1.02 ± 0.024 |
| CCCAGGAGTT | 1.94 ± 0.16 |
| ATTAGATATA | 1 ± 0.035 |
| TTTTAGTTT | 0.996 ± 0.023 |
| GTTAATTGGG | 0.953 ± 0.037 |
| GGTATCAGGA | 0.978 ± 0.013 |
| TTGTTCGGAG | 1.0006 ± 0.00036 |
| GTGTTAAGTT | 0.987 ± 0.034 |

| Sequence | switch fluorescence ratio |
| --- | --- |
| AATTGAAAAG | 0.982 ± 0.027 |
| GTGAGCCACG | 0.9932 ± 0.0014 |
| AGCGACGGTT | 0.982 ± 0.016 |
| AGGGAGGGGT | 0.983 ± 0.021 |
| GTTTTGGGGT | 0.986 ± 0.013 |
| CAAAAAATC | 1.02 ± 0.028 |
| CCGTCTGTTG | 1.03 ± 0.029 |
| ATTCGTTGG | 1 ± 0.038 |
| TTCAAATGGG | 0.9991 ± 0.0053 |
| ACTTGCGGGC | 1.03 ± 0.021 |
| ATAATAGAGT | 1.02 ± 0.024 |
| CGGGGGTAGT | 1.03 ± 0.015 |
| AATAGTTAGG | 1.02 ± 0.012 |
| ACGGAGGCAT | 1.31 ± 0.024 |
| TAGCAGGGGG | 1.03 ± 0.011 |
| AGCTGAGTAA | 1.036 ± 0.0085 |
| TAATCGCCAA | 1.05 ± 0.0039 |
| AATATGTGTG | 0.97933 ± 0.00034 |
| GGGGATTGTG | 0.991 ± 0.029 |
| ATGGGCTTGC | 0.994 ± 0.083 |
| TGTTGGTTTT | 1.02 ± 0.027 |
| ATATCGAGGC | 0.9803 ± 0.0089 |
| TCAGAGGGGG | 0.992 ± 0.036 |
| AGTTTGGGC | 0.9604 ± 0.0015 |
| TTTCAGGGGG | 1.05 ± 0.091 |
| GAAGTTTTGG | 0.996 ± 0.028 |

| Sequence | switch fluorescence ratio |
| --- | --- |
| GGGAAACCAC | 1.04 ± 0.02 |
| TAGTAAGTCA | 0.976 ± 0.023 |
| TACCGCGGTT | 1.04 ± 0.03 |
| ACTTTGAAGC | 0.996 ± 0.019 |
| GATGGGGATG | 0.9677 ± 0.0045 |
| GCGCTGGGCA | 1.01 ± 0.035 |
| TGGGCGAATG | 0.9946 ± 0.0058 |
| TGGTTATGTT | 1.02 ± 0.023 |
| CTAGAAGTAT | 1.024 ± 0.0033 |
| GACGTTGAGG | 0.983 ± 0.023 |
| ATGAGTCATT | 0.987 ± 0.026 |
| TAAAATGTTC | 0.988 ± 0.048 |
| GACGGCTCAG | 1 ± 0.015 |
| TCGGAAATTT | 1.002 ± 0.0079 |
| TAAGAATCGC | 1.15 ± 0.2 |
| GGGTTAAGGG | 0.984 ± 0.035 |
| GTTGTGAGGG | 0.981 ± 0.018 |
| GGAAGTTAGT | 0.98253 ± 0.00016 |
| GCGTCGATTA | 0.96 ± 0.015 |
| CGTCATATTG | 0.997 ± 0.027 |
| GAAGGAAGAG | 1.03 ± 0.025 |
| CTGATAACAT | 1.02 ± 0.018 |
| ATGATGAATA | 0.949 ± 0.017 |
| AATGAATTGT | 1.02 ± 0.022 |
| TAGGGGAGAA | 1.01 ± 0.014 |
| CGTGAAGGGA | 1.01 ± 0.026 |

| Sequence | switch fluorescence ratio |
| --- | --- |
| AGGTTTGTTG | 0.998 ± 0.016 |
| AATATTAGGC | 1.03 ± 0.03 |
| CAGTATCTGA | 1 ± 0.0047 |
| GGGGGGGTTG | 1.01 ± 0.083 |
| TTGGGGAGGG | 1.02 ± 0.05 |
| CGAGTGTCAG | 0.976 ± 0.028 |
| ATAGGAGTTC | 1.03 ± 0.023 |
| AATGTGCCGT | 1.07 ± 0.04 |
| TTGAAAGTTC | 1 ± 0.077 |
| TTTAGGTTGA | 0.9957 ± 0.0012 |
| CTGTCATTTG | 0.985 ± 0.03 |
| CTGGGGGTAA | 0.992 ± 0.02 |
| AACAACAGGA | 1.03 ± 0.045 |
| TCCAGCGCGG | 1.14 ± 0.015 |
| GTTGTATAGA | 1 ± 0.019 |
| GGATTTTATA | 1.01 ± 0.024 |
| GTCGTCGTCG | 0.972 ± 0.012 |
| TCACCAGATT | 1.017 ± 0.008 |
| CGGGTATTGG | 0.97968 ± 0.00074 |
| GCGATAAGAT | 1.0048 ± 0.00093 |
| TTAGGGGTTG | 0.979 ± 0.024 |
| ACTTGGTCGA | 0.9902 ± 0.0095 |
| TGATGTTATA | 0.968 ± 0.022 |
